Legend:
[1] = target: sCD4-gp120 89.6 complex (HIV-1 isolate 89.6) (UniProt Q73372); experiment: ELISA, sCD4-gp120 complex coated directly on plate, soluble Fab titrated, Langmuir fit
[2] = target: sCD4-gp120 JR-FL complex (HIV-1 isolate JR-FL) (UniProt P01730); experiment: as above
[3] = target: sCD4-gp120 HXB2 complex (HIV-1 isolate HXB2) (UniProt P04578); experiment: as above
[4] = target: gp120 JR-FL (HIV-1 isolate JR-FL) (UniProt P20871); experiment: ELISA, antigen coated directly on plate, soluble Fab titrated, Langmuir fit
[5] = target: gp120 89.6 (HIV-1 isolate 89.6) (UniProt Q73372); experiment: as above
[6] = target: gp120 HXB2 (HIV-1 isolate HXB2) (UniProt P04578); experiment: as above
[7] = target: HIV-1 Env NL4-3 on 293 cells (HIV-1 isolate NL4-3); experiment: cell-based or functional assay
[8] = target: HIV-1 Env GX-E14 on pseudotype virus (HIV-1 isolate GX-E14); experiment: cell-based or functional assay
[9] = target: HIV-1 Env R2 on pseudotype virus (HIV-1 isolate R2); experiment: cell-based or functional assay
[10] = target: HIV-1 Env UG975.10 on 293 cells (HIV-1 isolate UG975.10); experiment: cell-based or functional assay
[11] = target: HIV-1 Env 89.6 on 293 cells (HIV-1 isolate 89.6) (UniProt Q73372); experiment: cell-based or functional assay
[12] = target: HIV-1 Env UG037.8 on 293 cells (HIV-1 isolate UG037.8); experiment: cell-based or functional assay
[13] = target: HIV-1 Env VI1273 on pseudotype virus (HIV-1 isolate VI1273); experiment: cell-based or functional assay
[14] = target: HIV-1 Env #8-4/49 on pseudotype virus (HIV-1 isolate #8-4/49); experiment: cell-based or functional assay
[15] = target: HIV-1 Env Z2Z6 on pseudotype virus (HIV-1 isolate Z2Z6); experiment: cell-based or functional assay
[16] = target: HIV-1 Env BR025.9 on 293 cells (HIV-1 isolate BR025.9); experiment: cell-based or functional assay
[17] = target: HIV-1 Env TH966 on pseudotype virus (HIV-1 isolate TH966); experiment: cell-based or functional assay
[18] = target: HIV-1 Env #6-4/41 on pseudotype virus (HIV-1 isolate #6-4/41); experiment: cell-based or functional assay
[19] = target: HIV-1 Env TH022.4 on 293 cells (HIV-1 isolate TH022.4); experiment: cell-based or functional assay
[20] = target: HIV-1 Env US005.11 on 293 cells (HIV-1 isolate US005.11); experiment: cell-based or functional assay
[21] = target: HIV-1 Env GX-C44 on pseudotype virus (HIV-1 isolate GX-C44); experiment: cell-based or functional assay
[22] = target: HIV-1 Env #4-4/116 on pseudotype virus (HIV-1 isolate #4-4/116); experiment: cell-based or functional assay
[23] = target: HIV-1 Env US715.6 on 293 cells (HIV-1 isolate US715.6); experiment: cell-based or functional assay
[24] = target: HIV-1 Env MN-TCLA on pseudotype virus (HIV-1 isolate MN-TCLA) (UniProt P05877); experiment: cell-based or functional assay
[25] = target: HIV-1 Env BR029.2 on 293 cells (HIV-1 isolate BR029.2); experiment: cell-based or functional assay
[26] = target: HIV-1 Env VI1399 on pseudotype virus (HIV-1 isolate VI1399); experiment: cell-based or functional assay
[27] = target: HIV-1 Env #9-131 on pseudotype virus (HIV-1 isolate #9-131); experiment: cell-based or functional assay
[28] = target: HIV-1 Env RW020.5 on 293 cells (HIV-1 isolate RW020.5); experiment: cell-based or functional assay
[29] = target: HIV-1 Env HT593.1 on 293 cells (HIV-1 isolate HT593.1); experiment: cell-based or functional assay
[30] = target: sCD4-gp120 IIIB complex (HIV-1 isolate IIIB) (UniProt P01730); experiment: ELISA, sCD4-gp120 complex coated directly on plate, soluble Fab titrated, Langmuir fit
[31] = target: gp120 IIIB (HIV-1 isolate IIIB); experiment: ELISA, soluble Fab titrated on Env (gp120 by the footnote; direct coat or D7324 capture not specified)
[32] = target: gp120 IIIB (HIV-1 isolate IIIB); experiment: ELISA, antigen coated directly on plate, soluble Fab titrated, Langmuir fit
[33] = target: gp140 Bal-L (HIV-1 isolate Bal-L); experiment: ELISA, soluble Fab titrated on Env (direct coat or D7324 capture not given)
[34] = target: gp140 CM243 (HIV-1 isolate CM243); experiment: as above
[35] = target: gp140 HT593.1 (HIV-1 isolate HT593.1); experiment: as above
[36] = target: gp140 ZR001.3 (HIV-1 isolate ZR001.3); experiment: as above
[37] = target: gp140 R2 (HIV-1 isolate R2); experiment: as above
[38] = target: gp140 89.6 (HIV-1 isolate 89.6) (UniProt Q73372); experiment: as above
[39] = target: gp140 UG975-10 (HIV-1 isolate UG975-10); experiment: as above
[40] = target: gp140 BR019.10 (HIV-1 isolate BR019.10); experiment: as above
[41] = target: gp140 MW965.26 (HIV-1 isolate MW965.26); experiment: as above
[42] = target: gp140 UG037.8 (HIV-1 isolate UG037.8); experiment: as above
[43] = target: gp140 UG024.2 (HIV-1 isolate UG024.2); experiment: as above
[44] = target: HIV-1 Env 92RW020.5 on pseudotype virus (HIV-1 isolate 92RW020.5); experiment: cell-based or functional assay
[45] = target: HIV-1 Env V5 on pseudotype virus (HIV-1 isolate V5); experiment: cell-based or functional assay
[46] = target: HIV-1 Env VI14004 on pseudotype virus (HIV-1 isolate VI14004); experiment: cell-based or functional assay
[47] = target: HIV-1 Env P37 on pseudotype virus (HIV-1 isolate P37); experiment: cell-based or functional assay

Fab m14 was tested, and the Kd [1] was 7.3 nM, the Kd [2] was 1.2 nM and the Kd [3] was 0.4 nM. For the same substance, the Kd [4] was 0.9 nM, the Kd [5] was 5.4 nM and the Kd [6] was 0.3 nM. The % of fusion inhibition (syncytia count), Fab at 50 µg/ml [7] was 96%, the M14 Concentration (µg/ml) of Fab, 50% neutralization endpoint, pseudovirus assay [8] was 100 µg/mL and the M14 Concentration (µg/ml) of Fab, 50% neutralization endpoint, pseudovirus assay [9] was 2.24 µg/mL. The % of fusion inhibition (syncytia count), Fab at 50 µg/ml [10] was 22%, the % of fusion inhibition (syncytia count), Fab at 50 µg/ml [11] was 100% and the % of fusion inhibition (syncytia count), Fab at 50 µg/ml [12] was 100%. For the same substance, the M14 Concentration (µg/ml) of Fab, 50% neutralization endpoint, pseudovirus assay [13] was 3.1 µg/mL, the M14 Concentration (µg/ml) of Fab, 50% neutralization endpoint, pseudovirus assay [14] was 35.4 µg/mL and the M14 Concentration (µg/ml) of Fab, 50% neutralization endpoint, pseudovirus assay [15] was 50 µg/mL. For the same substance, the % of fusion inhibition (syncytia count), Fab at 50 µg/ml [16] was 71%, the M14 Concentration (µg/ml) of Fab, 50% neutralization endpoint, pseudovirus assay [17] was > 100 µg/mL and the M14 Concentration (µg/ml) of Fab, 50% neutralization endpoint, pseudovirus assay [18] was > 100 µg/mL. It also gave a % of fusion inhibition (syncytia count), Fab at 50 µg/ml [19] of 100%, a % of fusion inhibition (syncytia count), Fab at 50 µg/ml [20] of 95% and an M14 Concentration (µg/ml) of Fab, 50% neutralization endpoint, pseudovirus assay [21] of 8.8 µg/mL. For the same substance, the M14 Concentration (µg/ml) of Fab, 50% neutralization endpoint, pseudovirus assay [22] was > 100 µg/mL, the % of fusion inhibition (syncytia count), Fab at 50 µg/ml [23] was 35% and the M14 Concentration (µg/ml) of Fab, 50% neutralization endpoint, pseudovirus assay [24] was 2.24 µg/mL. The % of fusion inhibition (syncytia count), Fab at 50 µg/ml [25] was 71%, the M14 Concentration (µg/ml) of Fab, 50% neutralization endpoint, pseudovirus assay [26] was > 100 µg/mL and the M14 Concentration (µg/ml) of Fab, 50% neutralization endpoint, pseudovirus assay [27] was 100 µg/mL. The % of fusion inhibition (syncytia count), Fab at 50 µg/ml [28] was 31% and the % of fusion inhibition (syncytia count), Fab at 50 µg/ml [29] was 78%.
Fab m18 showed a Kd [30] of 0.09 nM, a Kd [1] of 0.9 nM and a Kd [2] of 0.7 nM. For the same substance, the EC50 [31] was 0.48 nM, the Kd [4] was 0.9 nM and the Kd [5] was 1 nM. The Kd [32] was 0.08 nM, the EC50 [33] was 0.53 nM and the EC50 [34] was 116 nM. It also gave an EC50 [35] of 0.25 nM, an EC50 [36] of 1.07 nM and an EC50 [37] of 0.13 nM. It also gave an EC50 [38] of 1.17 nM, an EC50 [39] of 0.87 nM and an EC50 [40] of 0.77 nM. It also gave an EC50 [41] of 0.55 nM, an EC50 [42] of 0.83 nM and an EC50 [43] of 0.97 nM. For the same substance, the % of fusion inhibition (syncytia count), Fab at 50 µg/ml [7] was 92%, the M18 Concentration (µg/ml) of Fab, 50% neutralization endpoint, pseudovirus assay [8] was > 100 µg/mL and the M18 Concentration (µg/ml) of Fab, 50% neutralization endpoint, pseudovirus assay [9] was 1.6 µg/mL. For the same substance, the % of fusion inhibition (syncytia count), Fab at 50 µg/ml [10] was 56%, the % of fusion inhibition (syncytia count), Fab at 50 µg/ml [11] was 100% and the % of fusion inhibition (syncytia count), Fab at 50 µg/ml [12] was 34%. The M18 Concentration (µg/ml) of Fab, 50% neutralization endpoint, pseudovirus assay [13] was 25 µg/mL, the M18 Concentration (µg/ml) of Fab, 50% neutralization endpoint, pseudovirus assay [14] was 5 µg/mL and the M18 Concentration (µg/ml) of Fab, 50% neutralization endpoint, pseudovirus assay [44] was 3 µg/mL. The M18 Concentration (µg/ml) of Fab, 50% neutralization endpoint, pseudovirus assay [45] was < 2 µg/mL, the M18 Concentration (µg/ml) of Fab, 50% neutralization endpoint, pseudovirus assay [15] was 25 µg/mL and the % of fusion inhibition (syncytia count), Fab at 50 µg/ml [16] was 86%. For the same substance, the M18 Concentration (µg/ml) of Fab, 50% neutralization endpoint, pseudovirus assay [46] was < 2 µg/mL, the M18 Concentration (µg/ml) of Fab, 50% neutralization endpoint, pseudovirus assay [17] was > 100 µg/mL and the M18 Concentration (µg/ml) of Fab, 50% neutralization endpoint, pseudovirus assay [18] was 100 µg/mL. The % of fusion inhibition (syncytia count), Fab at 50 µg/ml [19] was 93%, the % of fusion inhibition (syncytia count), Fab at 50 µg/ml [20] was 93% and the M18 Concentration (µg/ml) of Fab, 50% neutralization endpoint, pseudovirus assay [21] was > 25 µg/mL. The M18 Concentration (µg/ml) of Fab, 50% neutralization endpoint, pseudovirus assay [22] was 6.3 µg/mL, the % of fusion inhibition (syncytia count), Fab at 50 µg/ml [23] was 97% and the M18 Concentration (µg/ml) of Fab, 50% neutralization endpoint, pseudovirus assay [24] was < 1.6 µg/mL. For the same substance, the % of fusion inhibition (syncytia count), Fab at 50 µg/ml [25] was 86%, the M18 Concentration (µg/ml) of Fab, 50% neutralization endpoint, pseudovirus assay [26] was > 100 µg/mL and the M18 Concentration (µg/ml) of Fab, 50% neutralization endpoint, pseudovirus assay [27] was > 100 µg/mL. The M18 Concentration (µg/ml) of Fab, 50% neutralization endpoint, pseudovirus assay [47] was 100 µg/mL, the % of fusion inhibition (syncytia count), Fab at 50 µg/ml [28] was 25% and the % of fusion inhibition (syncytia count), Fab at 50 µg/ml [29] was 39%.

Source: patent US20050123900A1
